Experimental data as given in patent publication US20250034275A1 (CHIA TAI TIANQING PHARMACEUTICAL GROUP, published 2025).
Positions count from the first letter of the chain named.

T1: human Trop-2 (on the surface of human cell lines) (human, UniProt P09758 27-323)
T1 sequence: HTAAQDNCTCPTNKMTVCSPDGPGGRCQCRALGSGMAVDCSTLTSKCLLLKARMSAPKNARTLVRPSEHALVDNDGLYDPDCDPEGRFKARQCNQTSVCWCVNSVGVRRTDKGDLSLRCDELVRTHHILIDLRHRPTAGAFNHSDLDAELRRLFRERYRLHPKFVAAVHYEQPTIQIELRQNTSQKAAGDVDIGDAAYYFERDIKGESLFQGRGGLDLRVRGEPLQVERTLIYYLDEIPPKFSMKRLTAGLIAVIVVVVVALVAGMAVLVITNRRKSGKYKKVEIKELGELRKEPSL

T2: human Trop-2-His (human, UniProt P09758 27-274, limits assumed)
T2 construct: by analogy with the macaque construct it is probably the extracellular domain with a His tag; also called Trop-2-His protein
T2 sequence: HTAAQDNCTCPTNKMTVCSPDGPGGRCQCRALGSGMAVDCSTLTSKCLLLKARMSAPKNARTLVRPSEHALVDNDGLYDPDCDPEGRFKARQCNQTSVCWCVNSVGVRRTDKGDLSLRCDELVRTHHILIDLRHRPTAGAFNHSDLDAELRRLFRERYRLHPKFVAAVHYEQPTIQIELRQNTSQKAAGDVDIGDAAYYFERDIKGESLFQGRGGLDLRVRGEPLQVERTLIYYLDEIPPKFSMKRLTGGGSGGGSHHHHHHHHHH

T3: Macaque Trop-2-His (macaque, UniProt P09758 27-274 (human entry))
T3 construct: Extracellular domain of macaque Trop-2 recombinantly linked to His; also called monkey Trop-2-His protein; monkey Trop-2
T3 chain: T2 sequence with M36V, S67N, I204V

B1: ch-Ab2 (antibody, human IgG1, kappa, V domains shown)
VH: EVQLVESGPGLVAPSQSLSITCTVSGFSLTYYGIDWVRQPPGKGLEWLGVIWGSGNTKYNSALMSRLSISKDNSKSQVFLRMNSLQSDDTAIYYCARFYEGFAYWGQGTLVTVSA
VL: AIVLTQSPSSMYASLGERVTITCKASQDINSYLSWFQQKPGKSPKTLIYRANRLVDGVPSRFSGSGSGQDYSLTISSLEYEDMGIYYCLQYDEFPLTFGVGTKLELKR
notes: also called chimeric antibody of Ab2
B2: hz-Ab2-1.1 (antibody, human IgG1, kappa, V domains shown)
VH: EVQLVESGGGLIQPGGSLRLSCAVSGFSLTYYGIDWVRQPPGKGLEWVSVIWGSGNTKYNSALKSRLTISRDNSKSTLYLQMNSLRAEDTAVYYCARFYEGFAYWGQGTLVTVSS
VL: DIQMTQSPSSLSASVGDRVTITCKASQDINSYLSWFQQKPGKAPKTLIYRANRLVEGVPSRFSGSGSGQDYTLTISSLQPEDFATYYCLQYDEFPLTFGQGTKVEIKR
notes: Humanized antibody
B3: hz-Ab2-1.2 (antibody, human IgG1, kappa, V domains shown)
VH: B2 VH with G9P, S49G, S61Y, R71K
VL: B2 VL
notes: Humanized antibody
B4: hz-Ab2-2.1 (antibody, human IgG1, kappa, V domains shown)
VH: B2 VH
VL: B2 VL with K24R, Y71F, F94Y
notes: Humanized antibody
B5: hz-Ab2-2.2 (antibody, human IgG1, kappa, V domains shown)
VH: B2 VH with G9P, S49G, S61Y, R71K
VL: B2 VL with K24R, Y71F, F94Y
notes: Humanized antibody
B6: hz-Ab2-1.3 (antibody, human IgG1, kappa, V domains shown)
VH: QVQLQESGPGLVKPSETLSLTCTVSGFSLTYYGIDWIRQPPGKGLEWIGVIWGSGNTKYNSALKSRVTISKDNSKSQFSLKLSSVTAADTAVYYCARFYEGFAYWGQGTLVTVSS
VL: B2 VL
notes: Humanized antibody
B7: hz-Ab2-1.4 (antibody, human IgG1, kappa, V domains shown)
VH: B6 VH with F78V, S79Y
VL: B2 VL
notes: Humanized antibody
B8: hz-Ab2-2.3 (antibody, human IgG1, kappa, V domains shown)
VH: B6 VH
VL: B2 VL with K24R, Y71F, F94Y
notes: Humanized antibody

Tests used:
[1] = biological target: T1, human Trop-2 (on the surface of human …); experiment: cell-based or functional assay
[2] = biological target: T1, human Trop-2 (on the surface of human …); experiment: cell-based or functional assay; remark: listed apart in the source
[3] = biological target: T1, human Trop-2 (on the surface of human …); experiment: flow cytometry, HCC38 cells
Procedure: (§1) Tumor cells expressing Trop-2 were prepared into a cell suspension (0.5-1×10⁶ cells/mL) using the FACS buffer (Miltenyi Biotec, 130-091-221), and the cell suspension was added to a 96-well V-bottom plate at 100 μL/well. After centrifugation and removal of the supernatant, the test antibodies diluted with the FACS buffer to different concentrations (0.006 nM-100 nM) were each added at 50 μL/well. The mixture was incubated in the dark in a 4° C. refrigerator for 1 h. The plate was then washed 3 times with the FACS buffer by centrifugation at 300 g, and Alexa Fluor 488 goat anti-human IgG (H+L) (Bio-legend, 409304, 1:500 dilution) at working concentration was added. The mixture was incubated in the dark in a 4° C. refrigerator for 40 min. The plate was then washed 3 times with the FACS buffer by centrifugation at 300 g, the geometric mean fluorescence intensity (MFI) was measured on a Sartorius iQue3 flow cytometer, and the binding EC₅₀ values of the antibodies for tumor cells with different Trop-2 expression levels were calculated

[4] = biological target: T1, human Trop-2 (on the surface of human …); experiment: flow cytometry, HCC1806 cells
Procedure: as §1

[5] = biological target: T2, human Trop-2-His; experiment: ELISA, plate-coated human Trop-2-His
Procedure: (§2) After the liquid was discarded, 2% BSA (SIGMA, B2064-100G) diluted with PBS was added at 300 μL/well for blocking, and the mixture was incubated at 37° C. for 2 h. After the blocking was completed, the blocking buffer was discarded, the plate was washed 3 times with PBST buffer (pH 7.4 PBS containing 0.1% tween-20), the antibody solution diluted in a gradient was added at 100 μL/well, and the mixture was incubated at 37° C. for 1 h. After the incubation was completed, the plate was washed 3 times with PBST, the goat anti-human IgG (H+L) (JacksonImmunoResearch, 109-035-098, 1:5000 dilution) was added at 100 μL/well, and the mixture was incubated at 37° C. for 1 h. After the plate was washed 3 times with PBST, a TMB chromogenic substrate (TIANGEN, PA107-01) was added at 100 μL/well. The mixture was incubated at room temperature for 10-15 min, and then 1 M H₂SO₄ was added at 50 μL/well to terminate the reaction. The absorbance values at 450 nm were taken using a microplate reader. The binding curves of antibodies for antigen were fitted using software, and the EC₅₀ values were calculated.

[6] = biological target: T3, Macaque Trop-2-His; experiment: ELISA, plate-coated macaque Trop-2-His
Procedure: as §2, with “times with the PBST buffer” for “times with PBST buffer”

[7] = biological target: T2, human Trop-2-His; experiment: SPR (Biacore 8K), antibody captured, Trop-2-His as analyte
Description: The affinity of antibodies for human Trop-2-His was detected in the form of antibody capturing. The antibody was affinity-captured by a CM5 (Cat. #29149603, GE) biosensor chip conjugated with an anti-human IgG antibody (from human antibody capture kit, Cat. #29234600, GE), then the antigen human Trop-2-His flowed on the surface of the chip, and a Biacore 8K instrument was used for detecting reaction signals in real time to obtain association and dissociation curves. After dissociation was completed for each assay cycle, the chip was washed clean and regenerated with a regeneration buffer, 3M MgCl₂ (from human antibody capture kit, Cat. #29234600, GE). The association and dissociation curves were collected by Biacore 8K Control Software 3.0 in real time, and the data were analyzed by Biacore Insight Evaluation Software 3.0. The data were fitted using a Langmuir 1:1 model after double subtraction (namely, in each cycle, the contrast channel signal was subtracted from the experimental channel signal, and the sample signal was subtracted from the blank signal), and the association rate constant Ka, the dissociation rate constant Kd, and the equilibrium constant KD were calculated.

Row | Binder | ADCC reporter (Jurkat-CD16a v158-NFAT-luciferase), target cell H322, EC50 [1] [nM] | ADCC reporter (Jurkat-CD16a v158-NFAT-luciferase), target cell HCC1806, EC50 [1] [nM] | ADCC, PBMC killing (LDH), H322, EC50 [2] [nM] | ADCC, PBMC killing (LDH), H322, Maximum killing (%) [2] [%] | ADCC, PBMC killing (LDH), HCC1806, EC50 [2] [nM] | ADCC, PBMC killing (LDH), HCC1806, Maximum killing (%) [2] [%] | EC50 [3] [nM] | EC50 [4] [nM] | EC50 [5] [nM] | EC50 [6] [nM] | Kd [7] [nM] | koff [7] [s⁻¹] | kon [7] [M⁻¹ s⁻¹]
1 | B1 | 0.17 | 0.2 | 0.01 | 48.1 | 0.02 | 40 | 0.59 | 0.78 | 0.085 | 0.048 | – | – | –
2 | B2 | 1.45 | 4.1 | 0.13 | 47.8 | 0.46 | 32.9 | – | – | 0.082 | 0.133 | 47.8 | 0.0029 | 60600
3 | B3 | 0.31 | 0.42 | 0.01 | 48.4 | 0.03 | 36.6 | 0.76 | 0.9 | 0.076 | 0.064 | 1.43 | 0.00508 | 3.56e+06
4 | B4 | – | – | – | – | – | – | – | – | 1.08 | 1.19 | 0.686 | 0.00023 | 336000
5 | B5 | – | – | – | – | – | – | – | – | 0.218 | 0.341 | 2.41 | 0.00059 | 245000
6 | B6 | 0.17 | 0.33 | 0.02 | 48.1 | 0.06 | 37 | 0.65 | 1.22 | 0.081 | 0.068 | 16.5 | 0.0165 | 1e+06
7 | B7 | 0.34 | 0.39 | 0.01 | 48.7 | 0.02 | 34.8 | 1.2 | 1.07 | 0.068 | 0.053 | 2.32 | 0.00284 | 1.22e+06
8 | B8 | – | – | – | – | – | – | – | – | 0.359 | 0.83 | 2.72 | 0.000643 | 237000
